B1: Protein REG2 (Saccharomyces cerevisiae), P38232 (parent)
chain: MTLSNCDSLDNLFQDPPEEEESSKFVEAVRTLMNRNDMGYPPAAANGTYCLKKIKSLNAKQWKINKKRMCMLPAVKKKNFDFHEQRSLILNLNLWKFIKFINCSSKNNYNKNNKHVRSSNNTVKNENVLPLQKHKKVDNDQRLENLFWRSWFKARKRRDIMGKPRERHIKFNDNVEQCIITDEHFIQRLPSTRLNSTDEQRPCSKSELDPCIGNAASKRSFYDYNSVYVASDAIITTAAATAIISSNSGDYQRGHDVRDVPRNVLLQAGETDFSSVLRVDSDLKLSNISHHSPVKPSSTSSHSTFIFESETDTDTDTDAETENDIDAYIDTSIPNLLL
partner: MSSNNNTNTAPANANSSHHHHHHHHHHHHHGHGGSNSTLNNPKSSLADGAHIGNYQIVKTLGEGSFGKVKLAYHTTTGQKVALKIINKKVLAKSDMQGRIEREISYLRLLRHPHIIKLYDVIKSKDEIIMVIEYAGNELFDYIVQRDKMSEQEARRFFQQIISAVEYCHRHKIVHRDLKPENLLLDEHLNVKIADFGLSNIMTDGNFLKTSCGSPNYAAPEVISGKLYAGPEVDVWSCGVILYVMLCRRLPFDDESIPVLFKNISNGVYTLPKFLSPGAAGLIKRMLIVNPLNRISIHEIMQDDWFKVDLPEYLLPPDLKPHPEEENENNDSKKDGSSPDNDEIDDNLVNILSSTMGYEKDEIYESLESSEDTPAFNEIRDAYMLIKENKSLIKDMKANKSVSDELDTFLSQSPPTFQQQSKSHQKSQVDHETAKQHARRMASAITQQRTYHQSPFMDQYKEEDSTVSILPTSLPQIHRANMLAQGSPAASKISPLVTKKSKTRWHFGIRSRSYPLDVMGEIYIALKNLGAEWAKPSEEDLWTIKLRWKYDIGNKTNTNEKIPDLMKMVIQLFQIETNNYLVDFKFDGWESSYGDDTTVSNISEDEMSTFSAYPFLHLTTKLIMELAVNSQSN
B2: Carbon catabolite-derepressing protein kinase (Saccharomyces cerevisiae), P06782 (parent)
chain: B1 partner
partner: B1 chain
B3: Protein REG2 (Saccharomyces cerevisiae), P38232 (parent)
chain: B1 chain

Variants of: B1
Conditions: with snf1_yeast SNF1, P06782

Q: I169M;F171A was tested. Which “effect of a mutation on the interaction” value did it give?
A: with no effect

Variants of: B2
Conditions: with reg2_yeast REG2, P38232

Q: T210A was tested. Which “effect of a mutation on the interaction” value did it give?
A: disrupting interaction strength

Q: K84R was tested. Which “effect of a mutation on the interaction” value did it give?
A: decreasing interaction strength

Variants of: B3
Conditions: with pp12_yeast GLC7, P32598
Sequence of pp12_yeast GLC7, P32598 (P32598 whole entry): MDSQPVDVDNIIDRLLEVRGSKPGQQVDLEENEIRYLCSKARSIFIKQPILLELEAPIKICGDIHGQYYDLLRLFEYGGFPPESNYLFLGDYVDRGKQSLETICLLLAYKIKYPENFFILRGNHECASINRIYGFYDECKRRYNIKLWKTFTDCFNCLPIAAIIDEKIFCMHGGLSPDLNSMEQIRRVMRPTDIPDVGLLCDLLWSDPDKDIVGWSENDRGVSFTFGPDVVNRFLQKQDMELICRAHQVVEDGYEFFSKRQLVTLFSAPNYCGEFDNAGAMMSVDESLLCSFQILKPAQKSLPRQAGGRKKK

Q: Which “effect of a mutation on the interaction” value does the source give for I169M;F171A here?
A: disrupting interaction strength

Reference: IntAct's records for PubMed 27107116
